The values that follow come from US5587468, “High affinity nucleic acid ligands to HIV integrase” (University Research Corporation).

The target of data set [1] is T1, HIV-1 integrase (Human immunodeficiency virus 1 (BH10), UniProt P03366 P03366:1160-1447). As to the kind of experiment: FP filter; binding completely abolished. Conditions: tags: gift of Agouron Pharmaceuticals; BH10 clone.
Data set [2] concerns the target T1, HIV-1 integrase. The data set can be described thus: FP filter; deletion had no noticeable effect on binding. Conditions: tags: gift of Agouron Pharmaceuticals; BH10 clone.
Data set [3] deals with T1, HIV-1 integrase. The data set can be described thus: competition; inhibits binding of con+/- U5 DNA, 180 mM NaCl. Conditions: tags: gift of Agouron Pharmaceuticals; BH10 clone; stem-loops with GNRA tetraloop and putative pseudoknot (11-14 with 28-31).
Procedure: 50 nM integrase was mixed with 20 nM double-stranded con± which mimics the U5 region of the HIV genome and incubated at 37° C. for 5 minutes. After this time, varying amounts of P5 or 30N RNA (i.e., random pool RNA) was added and the reaction mix (30 µl final volume) was incubated further for 20 minutes. The reactions were then placed at room temperature and passed over nitrocellulose filters. Filters were washed three times with 1 ml of 50 mM Tris-Cl pH 7.5. Filters were dried under a heat lamp and counted in a cocktail for 1 minute each. In the absence of RNA under these conditions, approximately 10% of the double-stranded DNA was retained on filter.
Data set [4] addresses T1, HIV-1 integrase. The data set can be described thus: FP filter; nitrocellulose filter; 250 mM NaCl, 10 mM MnCl2, pH 7.5, 37 C. Conditions: tags: gift of Agouron Pharmaceuticals; BH10 clone; stem-loops with GNRA tetraloop and putative pseudoknot (11-14 with 28-31). The procedure:
(§1) Binding assays were done by adding 5 µl of HIV-1 integrase protein, at the appropriate concentrations (i.e., ranging from 2 ×10^-6 with 3 fold dilutions to 9 ×10^-9 for 250 mM NaCl and 0.5 ×10^-7 with 3 fold dilutions to 2 ×10^-10 for 50 mM NaCl), to 45 µl of binding buffer (50 mM Na-HEPES pH 7.5, 250 mM NaCl, 2 mM DTT, 10 mM MnCl_2, 5 mM CHAPS) on ice, then adding 50,000 cpm of kinased RNA (<200 fmoles) in a volume of 3 to 4 µl. This mix is incubated at 37° C. for 20 minutes. The reactions were then passed over nitrocellulose filters, which were pre-equilibrated in buffer, and washed with a 50 mM Tris-Cl pH 7.5 solution. Filters were dried and counted in cocktail. The proteins used in these experiments were frozen and thawed only once. Each binding curve consisted of seven points and each point is an average since experiments were done in triplicate.

For data set [5], the target named is T1, HIV-1 integrase. The data set can be described thus: FP filter; nitrocellulose filter; 50 mM NaCl. Conditions: tags: gift of Agouron Pharmaceuticals; BH10 clone; stem-loops with GNRA tetraloop and putative pseudoknot (11-14 with 28-31). The method, then:
as §1

Data set [6] has as its target T1, HIV-1 integrase. The data set can be described thus: FP filter; nitrocellulose filter; 250 mM NaCl. Conditions: tags: gift of Agouron Pharmaceuticals; BH10 clone. The procedure:
as §1

B1: P5 deletion of 1-14 (ssRNA)
RNA: AACGCUCAACCAGUCUUGUGGCUUUGAAAGAGAGGAGUGUUCGACAUGAGGCCCGGAUCCGGC
As to B1, in data set [1], the binding result is on record as “no binding”.

B2: P5 deletion of 56-77 (ssRNA)
RNA: GGGAGCUCAGAAUAAACGCUCAACCAGUCUUGUGGCUUUGAAAGAGAGGAGUGUU
On to B2, for which the binding result in data set [1] is listed as “no binding”.

B3: P5 truncate lacking 1-6 and 64-77 (ssRNA)
RNA: UCAGAAUAAACGCUCAACCAGUCUUGUGGCUUUGAAAGAGAGGAGUGUUCGACAUGA
On to B3, for which the binding result in data set [2] was “binds”.

B4: P5 (ssRNA)
RNA: GGGAGCUCAGAAUAAACGCUCAACCAGUCUUGUGGCUUUGAAAGAGAGGAGUGUUCGACAUGAGGCCCGGAUCCGGC
A word on the IC50: it is the point on the concentration scale where inhibition reaches its midpoint. Higher therefore signals a need for much substance. As usually defined, the Kd is the equilibrium constant for the complex coming apart. The molecule B4 gave a half-inhibitory concentration (IC50) in data set [3] of 6 nM. The dissociation constant Kd in data set [4] is 12 nM; in data set [5], 2 nM.

B5: P23 (ssRNA)
RNA: GGGAGCUCAGAAUAAACGCUCAACCAGUCUUAUGGCGUUGCAAGAUAGGGGCGUUCGACAUGAGGCCCGGAUCCGGC
As for B5, the dissociation constant (Kd) in data set [6] is 25 nM. That is a double-digit nanomolar value.
